The assay has as its target bovine submaxillary mucin, a source of the TAG-72 antigen (bovine). In words: binding activity of the Chx-DTPA conjugate; assay not given.

For “HuCC49 CH2 domain-deleted sc(Fv)2 tetravalent antibody conjugated with the chelator Chx-DTPA”, the avidity against conjugated control parent huCC49 lay in the range of 5 to 6 fold.

Source of the values: patent publication US8603473B2.
